Data on 2 molecules can be found in patent US20160084820A1, “METHODS OF TREATING OR PREVENTING PERIODONTITIS AND DISEASES ASSOCIATED WITH PERIODONTITIS” (priority 2010, published 2016).

Like-named read-outs stand apart in the source and are kept apart here. Where only a bound is given, the exact number is not on record here.

One data set has as its system IL-6 production. Nature of the data set: IL-6 ELISA in P. gingivalis-stimulated macrophages. It is filed as cell-based, mouse. Conditions: C5a 50 nM, 5 or 24 hours. How it is done:
Mouse peritoneal macrophages were incubated for 5 or 24 hours at 37° C. with P. gingivalis (Pg; MOI=10:1) in the presence or absence of C5a (50 nM), and culture supernatants were assayed for IL-6 by ELISA.

A further data set has as its system nitric oxide production. The data set is described as follows: NO2− (nitric oxide) production, Griess reaction-based assay, macrophages. The class given is cell-based, mouse. To be noted: for inhibiting nitric oxide, C5a vs C5a^desArg: 24 h. In general terms: Nitrite, measured by Griess reagent, commonly stands in for NO production.
Data set [1] relates to macrophages. Nature of the data set: Intracellular Ca2+ mobilization (Indo-1 AM), macrophages. It is filed as cell-based, mouse. To be noted: 50 nM.
Another data set relates to human neutrophils. Nature of the data set: In vitro killing of Pg and oxidative burst by human neutrophils. The class given is cell-based. To be noted: presence of C5a. As for the experimental part: (§1) To directly implicate neutrophils in this evasion mechanism, in vitro experiments were performed. It was shown that the ability of mouse or human neutrophils (purified from peripheral blood5 collected under IRB approval) to kill Pg was inhibited in the presence of C5a in a C5aR-dependent manner, whereas their oxidative burst response was enhanced.

The test system of the next data set is IL-12p70 production. The data set is described as follows: IL-12p70 induction in IFN-gamma-primed macrophages, ELISA. The class given is cell-based, mouse. How it is done: Induction of nitric oxide production was assessed by measuring the amount of NO2− (stable metabolite of nitric oxide) in stimulated culture supernatants using a Griess reaction-based assay kit (R&D Systems), as previously performed (Hajishengallis et al., 2008, PNAS USA, 105:13532-7). Levels of cAMP in activated cell extracts were measured using a cAMP enzyme immunoassay kit (Cayman Chemical) (Liang et al., 2007, J. Immunol., 178:4811-9). C5a-induced intracellular calcium mobilization was monitored in cells (4×10^6) loaded with 1 μM Indo 1-AM in the presence of 1 μM pluronic acid, as previously described (Ali et al., 1993, J. Biol. Chem., 268:24247-54). Calcium traces were recorded in a Perkin-Elmer fluorescence spectrometer (Model 650-19) with an excitation wavelength of 355 nm and an emission wavelength of 405 nm. Induction of cytokine production in activated cell culture supernatants or in the peritoneal fluid of infected mice was determined by ELISA using kits from eBioscience or Cell Sciences. C5a levels were measured by sandwich ELISA, employing a pair of capture and biotinylated anti-05a mAbs (BD Pharmingen), according to the manufacturer's protocol.
Whether C5a inhibits P. gingivalis-induced IL-12p70 in peritoneal macrophages was investigated. Since macrophages are generally poor producers of IL-12p70 in vitro unless primed with IFN-gamma, macrophages used in these experiments were primed with IFN-gamma (0.1 μg/ml). […] The host TLR response against P. gingivalis is predominantly mediated by TLR2, both in vitro and in vivo. Therefore, whether C5a-mediated inhibition of P. gingivalis-induced IL-12p70 could involve a C5aR-TLR2 crosstalk additionally was examined.

A further data set relates to intracellular cAMP. The data set is described as follows: cAMP enzyme immunoassay in P. gingivalis-stimulated macrophages. It is filed as cell-based, mouse. Conditions: for elevating cAMP, C5a vs C5a^desArg: 1 h.
A further data set relates to mouse neutrophils. Nature of the data set: In vitro killing of Pg and oxidative burst by mouse neutrophils. It is filed as cell-based. To be noted: presence of C5a. As for the experimental part: as §1
The subject of data set [2] is macrophages.
Protocol: Thioglycollate-elicited macrophages were isolated from the peritoneal cavity of wild-type or mice deficient in TLR2, TLR4, C3aR, or C5aR (The Jackson Laboratory) (Zhang et al., 2007, Blood, 110:228-36; Gajishengallis et al., 2006, Cell. Microbiol., 8:1557-70), in compliance with established federal guidelines and institutional policies. The macrophages were cultured at 37° C. and 5% CO2 in RPMI 1640 (InVitrogen) supplemented with 10% heat-inactivated FBS, 2 mM L-glutamine, 100 units/ml penicillin G, 100 μg/ml streptomycin, and 0.05 mM 2-ME.
Thioglycollate-elicited macrophages were isolated from the peritoneal cavity of wild-type or mice deficient in TLR2 or C5aR (Hajishengallis et al., 2006, Cell. Microbiol., 8:1557-70; Zhang et al., 2007, Blood, 110:228-36) in compliance with established institutional policies and federal guidelines. Both BALB/c and C57BL/6 C5aR-deficient mice were used (with their respective wild-type controls): The BALB/c mice were obtained from The Jackson Laboratory; and the C57BL/6 C5aR-deficient mice were originally provided by Dr. Craig Gerard (Harvard Medical School) and are now housed at The Jackson Laboratory. The TLR2-deficient mice were originally C57BL/6 (The Jackson Laboratory) and were backcrossed for nine generations onto a BALB/c genetic background before their use in these studies. […]
In data set [3] the test system is mouse peritoneal macrophages. Nature of the data set: P. gingivalis phagocytosis and receptor expression by flow cytometry. The class given is cell-based. As for the experimental part:
First, experiments were performed to determine the effect of C5a (50 nM) or C3a (200 nM) on P. gingivalis phagocytosis by unprimed or IFN-γ-primed mouse peritoneal macrophages (FIG. 6A). The phagocytic index was calculated following a 30-min incubation using the following formula: % positive cells for fluorescently labeled P. gingivalis×MFI/100 (extracellular fluorescence was quenched prior to flow cytometry). Mouse macrophages were incubated at 37° C. for 30 min (B) or 24 hours (C) with medium, C5a (50 nM) only, or P. gingivalis (MOI=10:1) with or without C5a (50 nM). The expression levels of the indicated receptors, which coordinately mediate P. gingivalis uptake, were determined by flow cytometry after cell staining with appropriate fluorescently labeled antibodies (FIGS. 6B and 6C). The 30-min time point was examined to determine possible induced surface expression of preformed receptors from intracellular pools. […] Mouse-specific mAbs to TLR2 (clone 6C2), TLR1 (TR23), CD14 (Sa2-8), CD11b (M1/70), and CD18 (M18/2) were obtained from e-Bioscience.
(A flow cytometer gives signals particle by particle.)

Data set [4] concerns phagocytosed P. gingivalis in mouse peritoneal macrophages. It is filed as cell-based, P. gingivalis ATCC 33277. Conditions: for promoting intracellular survival, C5a vs C5a^desArg: 24 h. How it is done:
The viability of phagocytosed P. gingivalis was monitored by an antibiotic protection-based intracellular survival assay, as previously described (Wang et al., 2007, J. Immunol., 179:2349-58). Briefly, mouse peritoneal macrophages were allowed to phagocytose P. gingivalis (MOI=10:1; 5×10^6 bacteria and 5×10^5 cells) for […] at 37° C. This was followed by washing to remove extracellular nonadherent bacteria and 1-hour treatment with antibiotics (300 μg/ml gentamicin and 200 μg/ml metronidazole) to eliminate residual or extracellular adherent bacteria. The macrophages were subsequently cultured overnight (for a total of 24 hours) or for 48 hours Immediately after, the macrophages were washed and lysed in sterile distilled water, and viable counts of internalized P. gingivalis were determined by plating serial dilutions of macrophage lysates on blood agar plates subjected to anaerobic culture.
The viability of phagocytosed P. gingivalis was monitored by an antibiotic protection-based intracellular survival assay, as previously described (Wang et al., 2007, J. Immunol., 179:2349-58)). Briefly, mouse peritoneal macrophages were allowed to phagocytose P. gingivalis (at a MOI=10:1; 5×10^6 bacteria and 5×10^5 macrophages) for 30 min at 37° C. This was followed by washing to remove extracellular nonadherent bacteria and 1-hour treatment with antibiotics (300 μg/ml gentamicin and 200 μg/ml metronidazole) to eliminate residual or extracellular adherent bacteria. The macrophages were subsequently cultured overnight for a total of 24 hours Immediately after, the macrophages were washed and lysed in sterile distilled water and viable counts of internalized P. gingivalis were determined by plating serial dilutions of macrophage lysates on blood agar plates subjected to anaerobic culture.

Data set [5] relates to negative regulators of TLR signaling. Nature of the data set: Expression of negative regulators of TLR signaling, quantitative real-time PCR. Conditions: C5a 50 nM, 4 hours. The class given is cell-based, mouse. How it is done: Gene expression in resting or activated mouse macrophages was quantified using quantitative real-time PCR. Briefly, RNA was extracted from cell lysates using the PerfectPure RNA cell kit (5 Prime, Fisher) and quantified by spectrometry at 260 and 280 nm. The RNA was reverse-transcribed using the High-Capacity cDNA Archive kit (Applied Biosystems) and quantitative real-time PCR with cDNA was performed using the ABI 7500 Fast System, according to the manufacturer's protocol (Applied Biosystems). TaqMan probes, sense primers, and antisense primers for expression of a house-keeping gene (GAPDH) or iNOS (or the genes shown in FIG. 7) were purchased from Applied Biosystems.
Supplemental experiments also examined the relative expression of negative regulators of TLR signaling in P. gingivalis-stimulated macrophages in the absence or presence of C5a. Mouse macrophages were stimulated with P. gingivalis (Pg; at a MOI=10:1) or medium control, in the presence or absence of 50 nM of C5a, and incubated for 4 hours. Quantitative real-time PCR (ABI 7500 Fast System; Applied Biosystems) was used to determine mRNA expression levels for the indicated molecules (normalized against GAPDH mRNA levels), which are shown in FIG. 7.

In data set [6] the test system is GSK3β Ser9-phosphorylation. Nature of the data set: GSK3β Ser9 phosphorylation ELISA in macrophages. The class given is cell-based, mouse. To be noted: C5a 50 nM without Pg. As for the experimental part: PKA activity in lysates of activated cells was determined using the ProFluor™ PKA assay, according to the instructions of the manufacturer (Promega) (Hajishengallis et al., 2008, PNAS USA, 105:13532-7). Phosphorylation of GSK313 on Ser9 and total GSK3β were monitored using FACE™ GSK3β ELISA kits (Active Motif).

Another data set deals with neutrophils. Nature of the data set: Intracellular Ca2+ mobilization (Indo-1 AM), neutrophils. It is filed as cell-based, mouse. In general terms: Calcium flux is commonly read through the fluorescence of an indicator in the cells.

B1: C5a: mouse C5a anaphylatoxin, purchased from Cell Sciences or R&D Systems (protein)
chain: NLHLLRQKIEEQAAKYKHSVPKKCCYDGARVNFYETCEERVARVTIGPLCIRAFNECCTIANKIRKESPHKPVQLGR
Turning to B1, the “IL-6 production in P. gingivalis-stimulated macrophages” value in the data set with IL-6 production is recorded as “up-regulation of IL-6 production”. In addition, the “inhibiting nitric oxide, C5a vs C5a^desArg” value in the data set with nitric oxide production (10 nM) is recorded as “stronger effects than C5a^desArg”. In addition, the “production of nitric oxide in P. gingivalis-stimulated macrophages” value in the data set with nitric oxide production (C5a 50 nM, unprimed or IFN-gamma-primed, 24 hours) is given as “significantly inhibited”. Also, the “intracellular Ca^2+ mobilization” value is “comparable intracellular Ca^2+ mobilization” in the data set with macrophages [1] and “only C5a was active” in the data set with neutrophils. Further, the “ability of neutrophils to kill Pg” value with human neutrophils and in the data set on mouse neutrophils was “inhibited” throughout. The oxidative burst response result in the data set on human neutrophils and with mouse neutrophils was “enhanced” throughout. Besides, in the data set with IL-12p70 production (10 nM), the “inhibition of P. gingivalis-induced IL-12p70” value was “already effective”. For the same molecule, in the data set on IL-12p70 production (C5a 50 nM, 24 h), the “P. gingivalis-induced IL-12p70 production” value is “significantly inhibited”. The “LPS-induced IL-12p70 production” value in the data set with IL-12p70 production (C5a 50 nM, E. coli LPS 0.1 μg/ml, 24 h) is “significantly inhibited”. Further, the “elevating cAMP, C5a vs C5a^desArg” value in the data set on intracellular cAMP (10 nM) is “stronger effects than C5a^desArg”. The “elevation of intracellular cAMP, C5a + P. gingivalis relative to P. gingivalis alone” value in the data set on intracellular cAMP (C5a 50 nM, Pg MOI=10:1) was over 3 fold. Moreover, in the data set on intracellular cAMP (CXCR4 blockade by AMD3100 1 μg/ml), the “cAMP difference AMD+C5a+Pg vs. AMD+Pg” value is recorded as over 6 fold. Also, the “cAMP response to C5a by itself” value in the data set with intracellular cAMP (macrophages without P. gingivalis) is reported as “failed to induce a cAMP response”. Besides, the “cell viability compared to medium-only treatments” value in the data set on macrophages [2] is listed as “None of the experimental treatments, including treatments with C5a up to 100 nM, affected cell viability”. The P. gingivalis phagocytosis entry in data set [3] (C5a 50 nM or C3a 200 nM, 30-min incubation) was “not significantly affected”. The “expression of macrophage receptors CD14, TLR2, CD11b/CD18” value in data set [3] (C5a 50 nM, 30 min or 24 hours) is given as “essentially unaffected”. In addition, in data set [4] (10 nM), the “promoting intracellular survival, C5a vs C5a^desArg” value was “stronger effects than C5a^desArg”. In addition, the “intracellular survival of P. gingivalis in macrophages (viable counts of internalized bacteria)” value in [4] (Pg MOI=10:1, C5a 50 nM or C3a 200 nM, 24 or 48 hours post-infection) is “significantly promoted”. For the same molecule, the “Pg CFU with C5a in the absence of inhibitors” value in data set [4] (macrophages with Pg and C5a, 24 hours postinfection, FIG. 2D dashed line) was 13.7±2.7 [×10^4] CFU. The “expression of negative regulators of TLR signaling with P. gingivalis and C5a” value in [5] is “no synergistic or additive effects”. Also, the “Ser9-phosphorylation of GSK3β by C5a itself” value in data set [6] was “only slightly increased”.

B2: C5a^desArg: desarginated form of mouse C5a (protein)
chain: NLHLLRQKIEEQAAKYKHSVPKKCCYDGARVNFYETCEERVARVTIGPLCIRAFNECCTIANKIRKESPHKPVQLG
Consider B2, for which the “inhibiting nitric oxide, C5a vs C5a^desArg” value with nitric oxide production (50 nM) is “no significant differences”. In addition, the “intracellular Ca^2+ mobilization” value in the data set on macrophages [1] was “comparable intracellular Ca^2+ mobilization”; in the data set with neutrophils it was “only C5a was active”. For the same molecule, the “inhibition of P. gingivalis-induced IL-12p70” value is reported as “not” with IL-12p70 production (10 nM) and “significant (p<0.05) inhibition” in the data set on IL-12p70 production (50 nM). The “elevating cAMP, C5a vs C5a^desArg” value in the data set with intracellular cAMP (50 nM) is “no significant differences”. The “promoting intracellular survival, C5a vs C5a^desArg” value in [4] (50 nM) is recorded as “no significant differences”.
